Measurements taken from patent publication US6077680A (The University of Florida, dated 2000).
“And” between values parts separate entries of the source, which are not always exact repeats. Identical values can stand only once. Like-named read-outs stand apart in the source and are kept apart here. Bridges are numbered along the chain shown (N, C = ends). Where no end group is shown, it is not given here.

How the values were obtained:
Kv1.3 = Kv1.3 (Mus musculus, UniProt P16390); assay: cell-based; type: cell-based
Sequence of Kv1.3 (P16390 whole entry): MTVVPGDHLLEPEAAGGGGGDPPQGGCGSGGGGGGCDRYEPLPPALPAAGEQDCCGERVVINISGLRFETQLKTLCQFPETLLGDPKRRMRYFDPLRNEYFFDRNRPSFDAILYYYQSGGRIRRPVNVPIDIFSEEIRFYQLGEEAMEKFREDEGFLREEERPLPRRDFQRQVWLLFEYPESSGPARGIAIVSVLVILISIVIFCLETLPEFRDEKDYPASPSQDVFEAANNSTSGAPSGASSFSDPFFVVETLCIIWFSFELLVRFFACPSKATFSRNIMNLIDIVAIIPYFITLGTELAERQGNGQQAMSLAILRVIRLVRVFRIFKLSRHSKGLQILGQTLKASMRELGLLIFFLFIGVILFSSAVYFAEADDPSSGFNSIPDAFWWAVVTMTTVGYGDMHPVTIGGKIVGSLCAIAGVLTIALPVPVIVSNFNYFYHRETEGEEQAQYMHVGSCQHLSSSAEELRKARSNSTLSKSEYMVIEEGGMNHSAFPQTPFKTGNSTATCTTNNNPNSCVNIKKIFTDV

[1] = target: Kv1.3 potassium channels in Jurkat T lymphocytes (Homo sapiens, UniProt P22001); type: cell-based
Sequence of Kv1.3 potassium channels in Jurkat T lymphocytes (P22001 whole entry): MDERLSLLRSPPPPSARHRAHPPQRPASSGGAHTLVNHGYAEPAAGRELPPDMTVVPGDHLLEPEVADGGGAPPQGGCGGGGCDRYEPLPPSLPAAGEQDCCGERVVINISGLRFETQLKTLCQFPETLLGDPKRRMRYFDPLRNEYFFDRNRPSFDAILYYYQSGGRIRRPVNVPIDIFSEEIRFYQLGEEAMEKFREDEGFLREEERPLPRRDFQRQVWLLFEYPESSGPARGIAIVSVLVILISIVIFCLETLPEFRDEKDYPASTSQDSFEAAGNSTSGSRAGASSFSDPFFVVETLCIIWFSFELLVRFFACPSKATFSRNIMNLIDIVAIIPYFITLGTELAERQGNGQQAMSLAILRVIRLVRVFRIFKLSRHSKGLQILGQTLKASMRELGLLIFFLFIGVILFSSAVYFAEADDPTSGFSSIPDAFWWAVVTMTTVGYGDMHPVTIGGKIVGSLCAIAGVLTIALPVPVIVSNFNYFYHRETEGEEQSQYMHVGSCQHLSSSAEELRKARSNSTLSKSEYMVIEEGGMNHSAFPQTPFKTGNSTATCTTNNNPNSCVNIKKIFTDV

[2] = test system: rat brain membrane K channels (primarily Kv1.2); type: binding
[3] = target: rat brain membrane K channels (delayed rectifier, primarily Kv1.2) (rat) (UniProt P63142); assay: 125I-DTX displacement, rat brain membranes
Sequence of rat brain membrane K channels (delayed rectifier, primarily Kv1.2) (rat) (P63142 whole entry): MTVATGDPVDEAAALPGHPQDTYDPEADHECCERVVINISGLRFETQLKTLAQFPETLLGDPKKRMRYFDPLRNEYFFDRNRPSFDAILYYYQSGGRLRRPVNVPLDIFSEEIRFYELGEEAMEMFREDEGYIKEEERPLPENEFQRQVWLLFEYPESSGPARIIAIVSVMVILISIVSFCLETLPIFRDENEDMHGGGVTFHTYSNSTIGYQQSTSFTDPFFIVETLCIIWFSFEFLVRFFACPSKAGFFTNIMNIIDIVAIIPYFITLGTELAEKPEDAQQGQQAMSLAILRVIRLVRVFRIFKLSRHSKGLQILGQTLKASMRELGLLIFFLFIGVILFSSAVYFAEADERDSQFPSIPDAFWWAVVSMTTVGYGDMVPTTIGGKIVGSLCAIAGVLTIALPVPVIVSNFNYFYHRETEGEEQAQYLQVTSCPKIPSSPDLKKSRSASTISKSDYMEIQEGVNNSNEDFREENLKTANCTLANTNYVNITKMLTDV

[4] = target: rat brain membrane K channels (delayed rectifier, primarily Kv1.2) (rat) (UniProt P63142)
[5] = target: rat brain membrane K channels (delayed rectifier, primarily Kv1.2) (rat) (UniProt P63142); remark: listed apart in the source
[6] = target: rat brain membrane K channels (delayed rectifier, primarily Kv1.2) (rat) (UniProt P63142); remark: listed apart in the source
[7] = target: rat brain membrane K channels (delayed rectifier, primarily Kv1.2) (rat) (UniProt P63142); remark: listed apart in the source
[8] = target: rat brain membrane K channels (delayed rectifier, primarily Kv1.2) (rat) (UniProt P63142); assay: radioligand displacement, rat brain membranes
[9] = target: rat brain membrane K channels (delayed rectifier, primarily Kv1.2) (rat) (UniProt P63142); remark: listed apart in the source
[10] = target: cloned Kv1.3 channel, wild type
[11] = target: Kv1.3 potassium channel of human T lymphocytes (human) (UniProt P22001)
Sequence of Kv1.3 potassium channel of human T lymphocytes (human) (P22001 whole entry): as the sequence (P22001 whole entry) above

[12] = target: cloned Kv1.3 channel, wild type; assay: patch clamp block of Kv1.3
[13] = target: cloned Kv1.3 channel, wild type; remark: listed apart in the source
cloned Kv1.2 channel [14] = target: cloned Kv1.2 channel
[15] = target: rat brain membrane K channels (delayed rectifier, primarily Kv1.2) (rat) (UniProt P63142); assay: IC50 ratio on brain delayed rectifier K channels (table title); assay not given
Kv1.3 H404Y = assay: electrophysiological block of current; Kd from fraction of unblocked current
Kv1.3 H404T = assay: as above
Kv1.3 D386N = assay: as above
Kv1.3 D386K = assay: as above
[16] = target: Kv1.3 channel printed as G30; assay: as above
Kv1.3 G380E = assay: as above
Kv1.3 H404L = assay: as above
[17] = target: cloned Kv1.3 channel, wild type; remark: listed apart in the source
[18] = target: cloned Kv1.3 channel, wild type; remark: listed apart in the source
cloned Kv1.2 channel [19] = target: cloned Kv1.2 channel; remark: listed apart in the source
[20] = target: cloned Kv1.3 channel, wild type; assay: block of cloned channel
cloned Kv1.1 channel [21] = assay: block of cloned channel
cloned Kv3.1 channel [22] = assay: patch clamp block of cloned channel
cloned Kv1.5 channel [23] = assay: patch clamp block of cloned channel
[24] = target: cloned Kv1.3 channel, wild type; remark: listed apart in the source
[25] = target: IKCa channel of activated human T-cells (human) (UniProt O15554); assay: whole-cell patch clamp block, activated human T-cells; called Kd in paragraph 470
[26] = target: cloned Kv1.3 channel, wild type; remark: listed apart in the source
cloned Kv1.1 channel [27] = target: cloned Kv1.1 channel
cloned Kv1.2 channel [28] = assay: block of cloned channel
cloned Kv1.1 channel [29] = target: cloned Kv1.1 channel; remark: listed apart in the source
cloned Kv3.1 channel [30] = assay: whole-cell patch clamp block, cell line stably expressing the channel
[31] = target: cloned Kv1.3 channel, wild type; assay: as above
cloned Kv1.5 channel [32] = assay: as above
cloned Kv1.1 channel [33] = assay: as above
cloned Kv1.2 channel [34] = assay: as above
[35] = target: small conductance calcium-activated potassium channel in T-cells; assay: block of channel in T-cells
cloned Kv1.1 channel [36] = target: cloned Kv1.1 channel; remark: listed apart in the source
[37] = target: cloned Kv1.3 channel, wild type; remark: listed apart in the source
[38] = target: IKCa channel of activated human T-cells (human) (UniProt O15554); assay: whole-cell patch clamp block, activated human T-cells
[39] = target: rat brain membrane K channels (delayed rectifier, primarily Kv1.2) (rat) (UniProt P63142); assay: 125I-dendrotoxin displacement assay
[40] = target: T1, rat brain membrane K channels (delayed rectifier, primarily Kv1.2) (rat, UniProt P63142); assay: IC50 ratio on brain delayed rectifier K channels (table title); assay not given
[41] = target: T1, rat brain membrane K channels (delayed …); assay: 125I-DTX displacement, rat brain membranes
[42] = target: T1, rat brain membrane K channels (delayed …)
[43] = target: T2, Kv1.3 potassium channel of human T lymphocytes (human, UniProt P22001); assay: 125I-ChTX displacement, Jurkat T lymphocytes
[44] = target: T2, Kv1.3 potassium channel of human T …; assay: 125I-ChTX displacement, Jurkat T lymphocytes; remark: listed apart in the source

CC[C@H](C)[C@@H]1NC(=O)[C@@H](NC(=O)[C@H](CO)NC(=O)[C@@H](N)CCCNC(=N)N)CSSC[C@@H](C(=O)O)NC(=O)[C@H]([C@@H](C)O)NC(=O)CNC(=O)[C@@H]2CSSC[C@@H]3NC(=O)[C@H](CCC(N)=O)NC(=O)[C@H](Cc4ccccc4)NC(=O)[C@H](C)NC(=O)[C@H]([C@@H](C)O)NC(=O)[C@H](CSSC[C@H](NC(=O)[C@H](Cc4ccccc4)NC(=O)[C@H](CO)NC(=O)[C@H](CC(C)C)NC(=O)[C@H](CCCNC(=N)N)NC(=O)[C@H](Cc4ccc(O)cc4)NC(=O)[C@H](CCCCNC(N)=O)NC(=O)[C@H](CCSC)NC(=O)[C@H](CO)NC(=O)[C@H](Cc4c[nH]cn4)NC(=O)[C@H](CCCCN)NC3=O)C(=O)N[C@@H](CCCNC(=N)N)C(=O)N[C@@H](CCCCN)C(=O)N[C@@H]([C@@H](C)O)C(=O)N2)NC(=O)[C@H](CCCNC(=N)N)NC(=O)[C@H](CO)NC(=O)[C@H](CCCCN)NC(=O)[C@@H]2CCCN2C(=O)[C@H]([C@@H](C)CC)NC(=O)[C@H]([C@@H](C)O)NC(=O)[C@H](CC(=O)O)NC1=O [K22Homocit]
Kd (Kv1.3; read-out: Kd): > 100 nM

CC[C@H](C)[C@@H]1NC(=O)[C@@H](NC(=O)[C@H](CO)NC(=O)[C@@H](N)CCCNC(=N)N)CSSC[C@@H](C(=O)O)NC(=O)[C@H]([C@@H](C)O)NC(=O)CNC(=O)[C@@H]2CSSC[C@@H]3NC(=O)[C@H](CCC(N)=O)NC(=O)[C@H](Cc4ccccc4)NC(=O)[C@H](C)NC(=O)[C@H]([C@@H](C)O)NC(=O)[C@H](CSSC[C@H](NC(=O)[C@H](Cc4ccccc4)NC(=O)[C@H](CO)NC(=O)[C@H](CC(C)C)NC(=O)[C@H](CCCNC(=N)N)NC(=O)[C@H](Cc4ccc(O)cc4)NC(=O)[C@H](CCCN)NC(=O)[C@H](CCSC)NC(=O)[C@H](CO)NC(=O)[C@H](Cc4c[nH]cn4)NC(=O)[C@H](CCCCN)NC3=O)C(=O)N[C@@H](CCCNC(=N)N)C(=O)N[C@@H](CCCCN)C(=O)N[C@@H]([C@@H](C)O)C(=O)N2)NC(=O)[C@H](CCCNC(=N)N)NC(=O)[C@H](CO)NC(=O)[C@H](CCCCN)NC(=O)[C@@H]2CCCN2C(=O)[C@H]([C@@H](C)CC)NC(=O)[C@H]([C@@H](C)O)NC(=O)[C@H](CC(=O)O)NC1=O [K22Orn]
Equipotent Molar Ration (Analog IC50 /ShK IC50) Lymphocyte [1]: 1.2
reduction of affinity (IC50) for Kv1.3 relative to ShK toxin [1]: only slightly reduced (two times)
Kd (Kv1.3): 2 ± 1 nM
Equipotent Molar Ration (Analog IC50 /ShK IC50) Rat brain [2]: 1.7
IC50 Ratio [2]: 1.2
binding affinity for rat brain K channels relative to wild-type ShK toxin, in words [2]: little effect
reduction of apparent affinity [2]: about 120%
ΔF [2]: 0.11
IC50 ([2]; read-out: IC50 Rat Brain 125I-CTX): 20 nM

ShK A15 + A25 (peptide)
IC50 ratio (analog IC50/ShK IC50) [3]: 2.1
free energy difference of binding [3]: 0.43 kcal/mol
IC50 ratio (analog IC50/ShK IC50) [4]: 2.1
free energy difference of binding [4]: 0.43 kcal/mol

ShK F27Cha (peptide)
IC50 ratio (analog IC50/ShK IC50) [5]: 0.7
free energy difference of binding [5]: -0.21 kcal/mol
IC50 ratio (analog IC50/ShK IC50) [3]: 0.7
free energy difference of binding [3]: -0.21 kcal/mol

ShK K9E (analog 104) (peptide)
IC50 ratio (analog IC50/ShK IC50) [6]: 3.57

ShK K22Orn (peptide)
IC50 ratio (analog IC50/ShK IC50) [7]: 1.2
free energy difference of binding [7]: 0.11 kcal/mol
reduction of apparent affinity [8]: 120%
IC50 [9]: 20 nM
Kd [10]: 2 nM
equipotent molar ratio (analog IC50/ShK IC50) for block of Kv1.3 current [11]: 1.2
IC50 ratio (analog IC50/ShK IC50) [3]: 1.7

ShK R1S (peptide)
IC50 [9]: 16 nM
equipotent molar ratio (analog IC50/ShK IC50) for block of Kv1.3 current [11]: 0.92
IC50 ratio (analog IC50/ShK IC50) [3]: 1.5

ShK desR1-S2 (peptide)
IC50 ratio (analog IC50/ShK IC50) [5]: 2.54
free energy difference of binding [5]: 0.54 kcal/mol
IC50 ratio (analog IC50/ShK IC50) [3]: 2.5
free energy difference of binding [3]: 0.54 kcal/mol

ShK toxin (synthetic, wild type) (peptide)
Kd [12]: 0.011 nM
Kd [13]: 0.012 nM
Kd (cloned Kv1.2 channel [14]): 9 nM
free energy difference of binding [15]: 0 kcal/mol
IC50 [9]: 8 nM
Kd (Kv1.3 H404Y): 4 nM
Kd (Kv1.3 H404T): 0.3 nM
Kd (Kv1.3 D386N): 0.4 nM
Kd (Kv1.3 D386K): 1.8 nM
Kd [16]: 0.6 nM
Kd (Kv1.3 G380E): 0.6 nM
Kd (Kv1.3 H404L): 3.2 nM
Kd [10]: 0.7 nM
Kd [17]: 0.6 nM and 0.3 nM
block of Kv1.3 current, whole-cell patch clamp (IC50) [18]: 0.012 nM
block of Kv1.2 current, whole-cell patch clamp (cloned Kv1.2 channel [19]): 100 fold
Kd [20]: 0.01 nM
Kd (cloned Kv1.1 channel [21]): 0.01 nM
Kd (cloned Kv3.1 channel [22]): > 1000 nM
Kd (cloned Kv1.5 channel [23]): > 1000 nM
Kd [24]: 0.1 nM
Kd [25]: 28 nM
free energy difference of binding [4]: 0 kcal/mol

ShK-K22DAP (peptide)
free energy difference of binding [7]: 2.23 kcal/mol
block of Kv1.3 current, whole-cell patch clamp (IC50) [26]: 0.03 nM
block of Kv1.1 current, whole-cell patch clamp (cloned Kv1.1 channel [27]): 30 fold
Kd (cloned Kv1.2 channel [28]): 5 nM
loss of potency against Kv1.1 (cloned Kv1.1 channel [29]): > 100 fold
Kd (cloned Kv3.1 channel [30]): > 100 nM
Kd [31]: 0.023 nM
Kd (cloned Kv1.5 channel [32]): > 100 nM
Kd (cloned Kv1.1 channel [33]): 3 nM
Kd (cloned Kv1.2 channel [34]): 39 nM
Kd [35]: 10 nM
potency on Kv1.1 against its potency on Kv1.3 (cloned Kv1.1 channel [36]): 40 fold
half-blocking dose for Kv1.3 [37]: 28 pM

ShK-K22DAP (peptide; other documents disagree on this pair)
Kd [38]: > 100 nM

KSRCTAFQCKHSXKYRLSFCRKTC (norleucine at position 21) [bicyclic truncated ShK analog of Example 14 (Cys12-Cys28, Cys17-Cys32)]
IC50 ratio (analog IC50/ShK IC50) [39]: 1360

KSRCTAFQCKHSXKYRLSFCRKTC (norleucine at position 21; Cys12 and Cys28 S-acetamidomethyl (Acm)) [monocyclic truncated ShK analog of Example 14 (Cys17-Cys32)]
IC50 ratio (analog IC50/ShK IC50) [39]: > 3000

Ac-RSCIDTIPKSRCTAFQCKHSMKYRLSFCRKTCGTC (ends and bridges not checked) [N-alpha-acetyl ShK toxin]
IC50 ratio (analog IC50/ShK IC50) [40]: 1 ratio
IC50 ratio (analog IC50/ShK IC50) [41]: 1 ratio

RSCIDTIPKSRCTKFQCDHSMKYRLSFCRKTCGTC (lactam 14-18; ends not checked) [ShK analog 106, Lactam Bridge (K14 -D18)]
IC50 ratio (analog IC50/ShK IC50) [42]: 1.63 ratio

SSCIDTIPKSRCTAFQCKHSMKYRLSFCRKTCGTC [ShK R1S]
IC50 [43]: 0.05 nM

RSCIDTIPQSRCTAFQCKHSMKYRLSFCRKTCGTC [ShK K9Q]
IC50 [43]: 0.31 nM

RSCIDTIPKSRCTAFQCKHSMKYRLSFCRKTCGTC [ShK toxin (synthetic, wild type)]
IC50 [44]: 0.032 nM
IC50 [43]: 0.04 nM
